According to publication PMC5954120:

Target: GST-Pmp23 (S. pneumoniae) (UniProt Q8DPY9)
Assay: MST; 100 nM GST-Pmp23 labeled with NT-647, titrated with PBP2x (7 nM to 235 μM) or BSA (5 nM to 360 μM); 25 °C; 50 mM Tris-HCl, 150 mM NaCl, 10 mM MgCl2, 0.05% Tween-20; triplicates

UniProt Q8DPY9, sequence (Q8DPY9 whole entry): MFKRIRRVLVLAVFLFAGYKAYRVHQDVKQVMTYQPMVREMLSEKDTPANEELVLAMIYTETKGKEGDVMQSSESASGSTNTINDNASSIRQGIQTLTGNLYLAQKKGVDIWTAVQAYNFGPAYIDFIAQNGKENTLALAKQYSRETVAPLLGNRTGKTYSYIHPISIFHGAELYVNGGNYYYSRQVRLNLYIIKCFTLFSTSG

## extracellular domain of PBP2x (domain or fragment)
  Kd: 9 µM
